Values of other authors in paper PMC5727865.

Biological target: gp120 gp120 (Human immunodeficiency virus 1) (UniProt O70902)
UniProt O70902, sequence (O70902 29-500): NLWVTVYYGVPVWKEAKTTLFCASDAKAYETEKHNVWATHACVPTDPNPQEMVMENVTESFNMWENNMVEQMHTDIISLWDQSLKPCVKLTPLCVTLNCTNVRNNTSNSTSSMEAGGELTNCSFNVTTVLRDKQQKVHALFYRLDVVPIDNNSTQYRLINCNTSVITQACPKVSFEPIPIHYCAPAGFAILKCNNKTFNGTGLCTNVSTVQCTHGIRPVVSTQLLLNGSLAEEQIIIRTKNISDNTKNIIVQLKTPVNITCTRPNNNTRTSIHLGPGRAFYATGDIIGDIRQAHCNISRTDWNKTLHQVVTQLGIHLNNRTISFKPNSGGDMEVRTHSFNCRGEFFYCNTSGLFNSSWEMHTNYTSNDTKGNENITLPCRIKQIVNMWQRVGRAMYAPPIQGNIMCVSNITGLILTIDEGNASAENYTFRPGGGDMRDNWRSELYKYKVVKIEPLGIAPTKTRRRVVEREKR

For DC-SIGN (from UniProt Q9NNX6), which Kd is on record?
Its Kd is 1.7 nM.
